The experiment has as its target peptide-6 (SEQ ID NO. 15) (Mycobacterium tuberculosis, UniProt P9WPE7).

B1: VH2/VK3: humanized anti-peptide-6 IgG1; heavy chain variable region SEQ ID NO: 21, light chain variable region SEQ ID NO: 26 (antibody, V domains shown)
VH: QVTLKESGPALVKPTQTLTLTCSFSGFSLSTSNMGVGWIRQPAGKGLEWLLHILWNDSKYYNPALKSRLTISKDTYKNQVVLTMTNMDPVDTATYYCARMGGYYGNYGYYAMDYWGQGTLVTVSS
VL: QIVLTQSPATLSLSPGERATLSCTASSSVSSSYLHWYQQKPGKAPKLWIYSTSNLASGVPSRFSGSGSGTDYTLTISSLQPEDFATYYCHQYHRSPPTFGQGTKLEIK
modifications: IgG1 constant regions; VH2 amino acid sequence; VK3 amino acid sequence
Consider B1, for which the “binding to peptide-6 directly compared to VH2/VK2 on the same plate” value was “marginally the best binding”.
